Drawing on patent US20120094899A1 (Takeda / Millennium, published 2012), this text covers IC50 ratio for 26 molecules.

The target in experiment [1] is T1, human TGR1 (human, UniProt Q9GZQ4 1-415).
T1 construct: whole, on cells; Assayed as the membrane fraction of TGR1-expressing CHO cells (1.1 mg/mL protein); also called NMUR2; TGR1 receptor
The experiment can be described thus: displacement of 125I-NMU8 from human TGR1 CHO membrane fraction; IC50 relative to NMU-8.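 Note: competitive binding on TGR1-expressing CHO cell membranes, with compounds tested as DMSO dilution series and incubated for 70 min at 25 °C.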 For orientation: Displacement assays read how much labelled ligand stays bound in the presence of the test substance.
Method: (§1) 15 mL of homogenized buffer (10 mM NaHCO₃ (pH 7.4), 5 mM EDTA, protease inhibitor=0.5 mM PMSF, 10 μg/mL Pepstatin A, 20 μg/mL Leupeptin, and 4 μg/mL E-64) was added to the obtained cell pellets, the cellular membrane was disrupted using a polytron homogenizer (Kinematica GmbH), centrifugation was conducted for 10 minutes at 1,000 g at 4° C., and the supernatant was collected. This process was further repeated twice, and ultracentrifugation was conducted for 60 minutes at 30,000 rpm at 4° C. Thereafter, 8 mL of homogenized buffer was added to the pellets and suspended homogeneously to prepare a membrane fraction. The protein concentration of the FM3-expressing CHO cellular membrane fraction was 1.2 mg/mL, and the protein concentration of the TGR1-expressing CHO cellular membrane fraction was 1.1 mg/mL.
(§2) Specifically, each of the NMU derivatives and PEG conjugates was dissolved in DMSO so as to prepare 2 μL of each dilution series of the NMU derivatives and PEG conjugates. […] The resulting product was thoroughly mixed, and then a reaction was carried out at 25° C. for 70 minutes.

Experiment [2] has as its target T2, Human FM3 (human, UniProt Q9HB89 1-426).
T2 construct: whole, on cells; Assayed as the membrane fraction of FM3-expressing CHO cells (1.2 mg/mL protein); also called NMUR1; FM3 receptor
T2 sequence (looked up): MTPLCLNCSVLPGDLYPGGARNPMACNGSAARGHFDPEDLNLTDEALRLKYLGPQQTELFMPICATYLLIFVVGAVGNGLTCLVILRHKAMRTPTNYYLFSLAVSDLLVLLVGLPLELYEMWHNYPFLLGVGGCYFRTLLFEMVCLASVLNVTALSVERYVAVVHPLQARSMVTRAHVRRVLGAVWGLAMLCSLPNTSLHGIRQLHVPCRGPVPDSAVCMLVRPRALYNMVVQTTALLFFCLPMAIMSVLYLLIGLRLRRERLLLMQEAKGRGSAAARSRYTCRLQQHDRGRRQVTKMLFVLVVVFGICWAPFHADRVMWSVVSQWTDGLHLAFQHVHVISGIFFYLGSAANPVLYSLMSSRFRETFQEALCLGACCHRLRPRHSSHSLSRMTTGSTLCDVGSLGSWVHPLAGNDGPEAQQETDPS
The experiment is described as follows: displacement of 125I-NMU8 from human FM3 CHO membrane fraction; IC50 relative to NMU-8.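 Note: binding reaction run for 70 min at 25 °C.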
Method: as §1, §2

Non-standard residues stand in square brackets, D forms with d. No end group written: not given here. *: point of attachment. Acetyl(2-(piperazin-1-yl)) = O=C(CN1CCNCC1)*; PEG 20 kDa = methoxypolyethylene glycol 20k; PEG 30 kDa = methoxypolyethylene glycol 30k; NMeY = CN[C@@H](Cc1ccc(O)cc1)C(=O)O; NMeR = CN[C@@H](CCCNC(=N)N)C(=O)O; NMeL = CN[C@@H](CC(C)C)C(=O)O; NMeA = CN[C@@H](C)C(=O)O; βAla = NCCC(=O)O

T1 sequence (Q9GZQ4 whole entry): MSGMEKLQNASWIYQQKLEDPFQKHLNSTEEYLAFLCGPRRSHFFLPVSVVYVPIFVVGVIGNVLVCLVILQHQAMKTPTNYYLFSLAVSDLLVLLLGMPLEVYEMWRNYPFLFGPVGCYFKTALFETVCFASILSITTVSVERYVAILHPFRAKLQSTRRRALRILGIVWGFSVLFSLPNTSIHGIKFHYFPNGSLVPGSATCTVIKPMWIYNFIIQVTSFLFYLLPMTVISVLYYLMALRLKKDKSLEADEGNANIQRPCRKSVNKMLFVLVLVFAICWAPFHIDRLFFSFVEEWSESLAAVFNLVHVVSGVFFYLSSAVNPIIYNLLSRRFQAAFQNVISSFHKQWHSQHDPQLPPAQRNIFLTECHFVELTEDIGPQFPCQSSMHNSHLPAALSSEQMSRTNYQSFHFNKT

B1: PEG20k-NpipAc0,Trp2,Ala6-NMU-8 (Compound T) (peptide)
peptide: {PEG 20 kDa-Acetyl(2-(piperazin-1-yl))}-YWLFRARN-NH2
notes: also called PEG20k-NpipAc-Trp2,Ala6-NMU8
In the case of B1, the IC50 ratio in experiment [1] is 55 ratio to NMU-8 (=1).

B2: 2-(piperazin-1-yl)acetyl-Arg3-NMU8 (Compound 10) (peptide)
peptide: {Acetyl(2-(piperazin-1-yl))}-YFRFRPRN-NH2
SMILES: N=C(N)NCCC[C@H](NC(=O)[C@H](Cc1ccccc1)NC(=O)[C@H](Cc1ccc(O)cc1)NC(=O)CN1CCNCC1)C(=O)N[C@@H](Cc1ccccc1)C(=O)N[C@@H](CCCNC(=N)N)C(=O)N1CCC[C@H]1C(=O)N[C@@H](CCCNC(=N)N)C(=O)N[C@@H](CC(N)=O)C(N)=O
notes: also called NpipAc-Arg3-NMU-8
As to B2, the IC50 ratio in experiment [1] is 0.66 ratio to NMU-8 (=1); in experiment [2] it was 0.27 ratio to NMU-8 (=1). {PEG 20 kDa-Acetyl(2-(piperazin-1-yl))}-YFRFRPRN-NH2 [PEG20k-NpipAc-Arg3-NMU-8 (Compound I)]: the figures for the IC50 ratio in experiment [1] and in experiment [2] were 2.1 ratio to NMU-8 (=1) and 1.6 ratio to NMU-8 (=1), respectively. {PEG 30 kDa-Acetyl(2-(piperazin-1-yl))}-YFRFRPRN-NH2 [PEG30k-NpipAc-Arg3-NMU-8 (Compound J)]: the IC50 ratio in experiment [1] is 2.6 ratio to NMU-8 (=1); in experiment [2], 2.2 ratio to NMU-8 (=1).

B3: β-Ala0,Arg3-NMU-8 (Compound 3) (peptide)
peptide: [βAla]YFRFRPRN-NH2
modifications: N-terminus assumed
SMILES: N=C(N)NCCC[C@H](NC(=O)[C@H](Cc1ccccc1)NC(=O)[C@H](Cc1ccc(O)cc1)NC(=O)CCN)C(=O)N[C@@H](Cc1ccccc1)C(=O)N[C@@H](CCCNC(=N)N)C(=O)N1CCC[C@H]1C(=O)N[C@@H](CCCNC(=N)N)C(=O)N[C@@H](CC(N)=O)C(N)=O
B3: the values for the IC50 ratio in experiment [1] and in experiment [2] were 0.38 ratio to NMU-8 (=1) and 0.07 ratio to NMU-8 (=1), respectively. Consider {PEG 30 kDa-βAla}-YFVFRPRN-NH2 (also called PEG-NH-β-Ala0,Val3-NMU-8) [PEG30k-NH-β-Ala0,Val3-NMU-8 (Compound D)], for which the IC50 ratio was 2.2 ratio to NMU-8 (=1) in experiment [1] and 5.3 ratio to NMU-8 (=1) in experiment [2]. For {PEG 30 kDa-βAla}-PFLFRPRN-NH2 (also called PEG-NH-β-Ala0,Pro1-NMU-8) [PEG30k-NH-β-Ala0,Pro1-NMU-8 (Compound H)], in that order: 21 ratio to NMU-8 (=1) and 9.4 ratio to NMU-8 (=1). Take {PEG 30 kDa-βAla}-YYLFRPRN-NH2 (also called PEG-NH-β-Ala0,Tyr2-NMU-8) [PEG30k-NH-β-Ala0,Tyr2-NMU-8 (Compound E)]: the IC50 ratio in experiment [1] was 1.7 ratio to NMU-8 (=1); in experiment [2], 8.1 ratio to NMU-8 (=1).

B4: β-Ala0,Arg1-NMU-8 (Compound 7) (peptide)
peptide: [βAla]RFLFRPRN-NH2
modifications: N-terminus assumed
SMILES: CC(C)C[C@H](NC(=O)[C@H](Cc1ccccc1)NC(=O)[C@H](CCCNC(=N)N)NC(=O)CCN)C(=O)N[C@@H](Cc1ccccc1)C(=O)N[C@@H](CCCNC(=N)N)C(=O)N1CCC[C@H]1C(=O)N[C@@H](CCCNC(=N)N)C(=O)N[C@@H](CC(N)=O)C(N)=O
Turning to B4, the IC50 ratio is 3.7 ratio to NMU-8 (=1) in experiment [1] and 0.42 ratio to NMU-8 (=1) in experiment [2].

In the case of {PEG 30 kDa-βAla}-RFLFRPRN-NH2 (also called PEG-NH-β-Ala0,Arg1-NMU-8) [PEG30k-NH-β-Ala0,Arg1-NMU-8 (Compound G)], the values for the IC50 ratio in experiment [1] and in experiment [2] were 8.5 ratio to NMU-8 (=1) and 1.5 ratio to NMU-8 (=1), respectively.

B5: β-Ala0,Gln3-NMU-8 (Compound 2) (peptide)
peptide: [βAla]YFQFRPRN-NH2
modifications: N-terminus assumed
SMILES: N=C(N)NCCC[C@H](NC(=O)[C@@H]1CCCN1C(=O)[C@H](CCCNC(=N)N)NC(=O)[C@H](Cc1ccccc1)NC(=O)[C@H](CCC(N)=O)NC(=O)[C@H](Cc1ccccc1)NC(=O)[C@H](Cc1ccc(O)cc1)NC(=O)CCN)C(=O)N[C@@H](CC(N)=O)C(N)=O
For B5, the IC50 ratio in experiment [1] is 3.9 ratio to NMU-8 (=1); in experiment [2] it was 0.31 ratio to NMU-8 (=1).

Turning to {PEG 30 kDa-βAla}-YFLFQPRN-NH2 (also called PEG-NH-β-Ala0,Gln5-NMU-8) [PEG30k-NH-β-Ala0,Gln5-NMU-8 (Compound A)], the IC50 ratio in experiment [1] is 9.6 ratio to NMU-8 (=1); in experiment [2], 160 ratio to NMU-8 (=1).

For {PEG 30 kDa-βAla}-YFRFRPRN-NH2 (also called PEG-NH-β-Ala0,Arg3-NMU-8) [PEG30k-NH-β-Ala0,Arg3-NMU-8 (Compound C)], the results for the IC50 ratio in experiment [1] and in experiment [2] were 2.6 ratio to NMU-8 (=1) and 1.7 ratio to NMU-8 (=1), respectively. For YFRFRPRN-NH2 (no linker) [Arg3-NMU-8 (Compound 9)], in that order: 1.9 ratio to NMU-8 (=1) and 0.62 ratio to NMU-8 (=1). For the molecule {PEG 30 kDa-βAla}-YFQFRPRN-NH2 (also called PEG-NH-β-Ala0,Gln3-NMU-8) [PEG30k-NH-β-Ala0,Gln3-NMU-8 (Compound B)], the IC50 ratio in experiment [1] is 7.3 ratio to NMU-8 (=1); in experiment [2], 1.8 ratio to NMU-8 (=1).

B6: β-Ala0,Asp8-NMU-8 (Compound 12) (peptide)
peptide: [βAla]YFLFRPRD-NH2
modifications: N-terminus assumed
SMILES: CC(C)C[C@H](NC(=O)[C@H](Cc1ccccc1)NC(=O)[C@H](Cc1ccc(O)cc1)NC(=O)CCN)C(=O)N[C@@H](Cc1ccccc1)C(=O)N[C@@H](CCCNC(=N)N)C(=O)N1CCC[C@H]1C(=O)N[C@@H](CCCNC(=N)N)C(=O)N[C@@H](CC(=O)O)C(N)=O
Turning to B6, the values for the IC50 ratio in experiment [1] and in experiment [2] were 2 ratio to NMU-8 (=1) and 2.4 ratio to NMU-8 (=1), respectively. Turning to {PEG 30 kDa-βAla}-YFLFRPRD-NH2 [PEG30k-NH-β-Ala0,Asp8-NMU-8 (Compound L)], the IC50 ratio in experiment [1] is 34 ratio to NMU-8 (=1); in experiment [2], 150 ratio to NMU-8 (=1).

B7: β-Ala0,NMeArg5-NMU-8 (Compound 13) (peptide)
peptide: [βAla]YFLF[NMeR]PRN-NH2
modifications: N-terminus assumed
SMILES: CC(C)C[C@H](NC(=O)[C@H](Cc1ccccc1)NC(=O)[C@H](Cc1ccc(O)cc1)NC(=O)CCN)C(=O)N[C@@H](Cc1ccccc1)C(=O)N(C)[C@@H](CCCNC(=N)N)C(=O)N1CCC[C@H]1C(=O)N[C@@H](CCCNC(=N)N)C(=O)N[C@@H](CC(N)=O)C(N)=O
B7: in experiment [2], the IC50 ratio is 0.46 ratio to NMU-8 (=1).

B8: β-Ala0,Trp2,NMeAla6-NMU-8 (Compound 17) (peptide)
peptide: [βAla]YWLFR[NMeA]RN-NH2
modifications: N-terminus assumed
SMILES: CC(C)C[C@H](NC(=O)[C@H](Cc1c[nH]c2ccccc12)NC(=O)[C@H](Cc1ccc(O)cc1)NC(=O)CCN)C(=O)N[C@@H](Cc1ccccc1)C(=O)N[C@@H](CCCNC(=N)N)C(=O)N(C)[C@@H](C)C(=O)N[C@@H](CCCNC(=N)N)C(=O)N[C@@H](CC(N)=O)C(N)=O
For B8, the IC50 ratio in experiment [1] is 1.9 ratio to NMU-8 (=1); in experiment [2] it was 92 ratio to NMU-8 (=1).

B9: NpipAc0,Glu2,Ala6-NMU-8 (Compound 19) (peptide)
peptide: {Acetyl(2-(piperazin-1-yl))}-YELFRARN-NH2
SMILES: CC(C)C[C@H](NC(=O)[C@H](CCC(=O)O)NC(=O)[C@H](Cc1ccc(O)cc1)NC(=O)CN1CCNCC1)C(=O)N[C@@H](Cc1ccccc1)C(=O)N[C@@H](CCCNC(=N)N)C(=O)N[C@@H](C)C(=O)N[C@@H](CCCNC(=N)N)C(=O)N[C@@H](CC(N)=O)C(N)=O
notes: also called 2-(piperazin-1-yl)acetyl-[Glu2,Ala6]-NMU8
Take B9: the IC50 ratio in experiment [1] was 25 ratio to NMU-8 (=1); in experiment [2] it was 24000 ratio to NMU-8 (=1). For the molecule {PEG 20 kDa-βAla}-YELFR[NMeA]RN-NH2 [PEG20k-NH-β-Ala0,Glu2,NMeAla6-NMU-8 (Compound R)], in experiment [1], the IC50 ratio was 540 ratio to NMU-8 (=1).

B10: PEG20k-NpipAc0,Glu2,Ala6-NMU-8 (Compound S) (peptide)
peptide: {PEG 20 kDa-Acetyl(2-(piperazin-1-yl))}-YELFRARN-NH2
notes: also called PEG20k-NpipAc-Glu2,Ala6-NMU8
B10: the IC50 ratio in experiment [1] is 750 ratio to NMU-8 (=1).

B11: β-Ala0,Glu2,NMeAla6-NMU-8 (Compound 18) (peptide)
peptide: [βAla]YELFR[NMeA]RN-NH2
modifications: N-terminus assumed
SMILES: CC(C)C[C@H](NC(=O)[C@H](CCC(=O)O)NC(=O)[C@H](Cc1ccc(O)cc1)NC(=O)CCN)C(=O)N[C@@H](Cc1ccccc1)C(=O)N[C@@H](CCCNC(=N)N)C(=O)N(C)[C@@H](C)C(=O)N[C@@H](CCCNC(=N)N)C(=O)N[C@@H](CC(N)=O)C(N)=O
On to B11, for which the IC50 ratio is 31 ratio to NMU-8 (=1) in experiment [1] and 26000 ratio to NMU-8 (=1) in experiment [2].

B12: PEG20k-NpipAc0,Glu2,NMeAla6-NMU-8 (Compound U) (peptide)
peptide: {PEG 20 kDa-Acetyl(2-(piperazin-1-yl))}-YELFR[NMeA]RN-NH2
notes: also called PEG20k-NpipAc-Glu2,NMeAla6-NMU8
On to B12, for which the IC50 ratio in experiment [1] is 360 ratio to NMU-8 (=1).

B13: NpipAc0,Glu2,NMeAla6-NMU-8 (Compound 21) (peptide)
peptide: {Acetyl(2-(piperazin-1-yl))}-YELFR[NMeA]RN-NH2
SMILES: CC(C)C[C@H](NC(=O)[C@H](CCC(=O)O)NC(=O)[C@H](Cc1ccc(O)cc1)NC(=O)CN1CCNCC1)C(=O)N[C@@H](Cc1ccccc1)C(=O)N[C@@H](CCCNC(=N)N)C(=O)N(C)[C@@H](C)C(=O)N[C@@H](CCCNC(=N)N)C(=O)N[C@@H](CC(N)=O)C(N)=O
notes: also called 2-(piperazin-1-yl)acetyl-[Glu2,NMeAla6]-NMU8
On to B13, for which the results for the IC50 ratio in experiment [1] and in experiment [2] were 5.5 ratio to NMU-8 (=1) and 6500 ratio to NMU-8 (=1), respectively.

B14: β-Ala0,NMeTyr1,NMeLeu3,NMeArg5-NMU-8 (Compound 16) (peptide)
peptide: [βAla][NMeY]F[NMeL]F[NMeR]PRN-NH2
modifications: N-terminus assumed
SMILES: CC(C)C[C@@H](C(=O)N[C@@H](Cc1ccccc1)C(=O)N(C)[C@@H](CCCNC(=N)N)C(=O)N1CCC[C@H]1C(=O)N[C@@H](CCCNC(=N)N)C(=O)N[C@@H](CC(N)=O)C(N)=O)N(C)C(=O)[C@H](Cc1ccccc1)NC(=O)[C@H](Cc1ccc(O)cc1)N(C)C(=O)CCN
notes: also called β-Ala0,NMeTry1,NMeLeu3,NMEArg5-NMU-8
In the case of B14, in experiment [1], the IC50 ratio was 27 ratio to NMU-8 (=1).
